Patent US20110152183A1 (Novo Nordisk, published 2011)
Bridge positions count the residues as written; N and C are the ends.

T1: Amylin 3(a) receptor (human calcitonin receptor (CTa) coexpressed with RAMP-3) on BHK570 cells (human, UniProt P30988 25-474)
T1 sequence (P30988 whole entry, looked up): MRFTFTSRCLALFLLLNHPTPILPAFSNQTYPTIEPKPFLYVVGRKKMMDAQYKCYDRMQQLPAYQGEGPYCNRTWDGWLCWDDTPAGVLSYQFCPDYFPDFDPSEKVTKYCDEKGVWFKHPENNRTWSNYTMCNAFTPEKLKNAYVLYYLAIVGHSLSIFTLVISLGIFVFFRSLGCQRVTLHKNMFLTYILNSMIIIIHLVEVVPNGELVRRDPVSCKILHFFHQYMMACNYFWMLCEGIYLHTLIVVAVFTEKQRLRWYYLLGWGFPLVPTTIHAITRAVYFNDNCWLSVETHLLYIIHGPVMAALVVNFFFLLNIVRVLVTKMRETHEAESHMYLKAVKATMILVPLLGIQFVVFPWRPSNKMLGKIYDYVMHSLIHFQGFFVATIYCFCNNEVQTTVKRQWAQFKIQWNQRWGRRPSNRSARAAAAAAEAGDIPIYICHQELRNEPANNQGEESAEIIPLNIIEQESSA
T1 sequence (O60896 whole entry, looked up): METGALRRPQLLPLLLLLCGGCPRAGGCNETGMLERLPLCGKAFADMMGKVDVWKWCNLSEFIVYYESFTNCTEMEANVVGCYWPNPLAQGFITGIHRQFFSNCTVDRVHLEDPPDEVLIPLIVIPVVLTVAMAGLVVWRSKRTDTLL


Key:
[1] = target: T1, Amylin 3(a) receptor (human calcitonin …); test: cell-based or functional assay
[2] = target: Amylin 3(a) receptor (human calcitonin receptor (CTa) coexpressed with RAMP-3) on BHK570 cells (human, UniProt P30988 25-474); test: cell-based or functional assay; remark: listed apart in the source

EC50 (pM) in luciferase assay [1] | EC50 (pM) in luciferase assay [2] | Binder
50 pM | – | {4‑carboxy‑4‑(19-carboxy-nonadecanoylamino)butyryl}-KCNTATCALGRLSQELHRLQTYPRTNTGSNTY-NH2 (disulfide 2-7)
3 pM | – | KCNTATCALGRLSQELHRLQTYPRTNTGSNTY (HELM PEPTIDE1{K.C.N.T.A.T.C.A.L.G.R.L.S.Q.E.L.H.R.L.Q.T.Y.P.R.T.N.T.G.S.N.T.Y.[am]}$PEPTIDE1,PEPTIDE1,2:R3-7:R3$$$V2.0; N-terminus assumed; SMILES CC(C)C[C@H](NC(=O)[C@H](C)NC(=O)[C@@H]1CSSC[C@H](NC(=O)[C@@H](N)CCCCN)C(=O)N[C@@H](CC(N)=O)C(=O)N[C@@H]([C@@H](C)O)C(=O)N[C@@H](C)C(=O)N[C@@H]([C@@H](C)O)C(=O)N1)C(=O)NCC(=O)N[C@@H](CCCNC(=N)N)C(=O)N[C@@H](CC(C)C)C(=O)N[C@@H](CO)C(=O)N[C@@H](CCC(N)=O)C(=O)N[C@@H](CCC(=O)O)C(=O)N[C@@H](CC(C)C)C(=O)N[C@@H](Cc1c[nH]cn1)C(=O)N[C@@H](CCCNC(=N)N)C(=O)N[C@@H](CC(C)C)C(=O)N[C@@H](CCC(N)=O)C(=O)N[C@H](C(=O)N[C@@H](Cc1ccc(O)cc1)C(=O)N1CCC[C@H]1C(=O)N[C@@H](CCCNC(=N)N)C(=O)N[C@H](C(=O)N[C@@H](CC(N)=O)C(=O)N[C@H](C(=O)NCC(=O)N[C@@H](CO)C(=O)N[C@@H](CC(N)=O)C(=O)N[C@H](C(=O)N[C@@H](Cc1ccc(O)cc1)C(N)=O)[C@@H](C)O)[C@@H](C)O)[C@@H](C)O)[C@@H](C)O) [Amylin (1-8)-[Arg11,Arg18]sCT (9-27)-amylin (33-37)]
– | 10 pM | HCNTATCALGHLSQELHHLQTYPHTNTGSNTY (HELM PEPTIDE1{H.C.N.T.A.T.C.A.L.G.H.L.S.Q.E.L.H.H.L.Q.T.Y.P.H.T.N.T.G.S.N.T.Y.[am]}$PEPTIDE1,PEPTIDE1,2:R3-7:R3$$$V2.0; N-terminus assumed; SMILES CC(C)C[C@H](NC(=O)[C@H](C)NC(=O)[C@@H]1CSSC[C@H](NC(=O)[C@@H](N)Cc2c[nH]cn2)C(=O)N[C@@H](CC(N)=O)C(=O)N[C@@H]([C@@H](C)O)C(=O)N[C@@H](C)C(=O)N[C@@H]([C@@H](C)O)C(=O)N1)C(=O)NCC(=O)N[C@@H](Cc1c[nH]cn1)C(=O)N[C@@H](CC(C)C)C(=O)N[C@@H](CO)C(=O)N[C@@H](CCC(N)=O)C(=O)N[C@@H](CCC(=O)O)C(=O)N[C@@H](CC(C)C)C(=O)N[C@@H](Cc1c[nH]cn1)C(=O)N[C@@H](Cc1c[nH]cn1)C(=O)N[C@@H](CC(C)C)C(=O)N[C@@H](CCC(N)=O)C(=O)N[C@H](C(=O)N[C@@H](Cc1ccc(O)cc1)C(=O)N1CCC[C@H]1C(=O)N[C@@H](Cc1c[nH]cn1)C(=O)N[C@H](C(=O)N[C@@H](CC(N)=O)C(=O)N[C@H](C(=O)NCC(=O)N[C@@H](CO)C(=O)N[C@@H](CC(N)=O)C(=O)N[C@H](C(=O)N[C@@H](Cc1ccc(O)cc1)C(N)=O)[C@@H](C)O)[C@@H](C)O)[C@@H](C)O)[C@@H](C)O) [[His1]amylin (1-8)-[His11,His18,His24]sCT (9-27)-amylin (33-37)]
